Experimental findings from patent publication US20070060537 are described below.

The target of data set [1] is His6-UbcH13/Uev1a, Q13404.
The target in data set [2] is E2 Ubch5c from bacteria, P61077.
Sequence of E2 Ubch5c from bacteria, P61077 (P61077 whole entry): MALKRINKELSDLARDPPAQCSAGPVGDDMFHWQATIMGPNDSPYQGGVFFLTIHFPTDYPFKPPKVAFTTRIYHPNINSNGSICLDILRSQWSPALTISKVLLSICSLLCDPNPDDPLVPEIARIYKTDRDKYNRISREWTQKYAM

Sequence of His6-UbcH13/Uev1a, Q13404 (chain, as listed by the source, chain 1 of 2): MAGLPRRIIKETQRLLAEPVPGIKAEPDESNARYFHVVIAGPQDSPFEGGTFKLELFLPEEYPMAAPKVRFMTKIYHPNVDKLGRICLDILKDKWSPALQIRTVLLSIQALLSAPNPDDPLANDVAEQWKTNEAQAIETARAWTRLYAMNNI
Sequence of His6-UbcH13/Uev1a, Q13404 (Q13404 other isoform, or with tags, fused parts or gaps, chain 2 of 2): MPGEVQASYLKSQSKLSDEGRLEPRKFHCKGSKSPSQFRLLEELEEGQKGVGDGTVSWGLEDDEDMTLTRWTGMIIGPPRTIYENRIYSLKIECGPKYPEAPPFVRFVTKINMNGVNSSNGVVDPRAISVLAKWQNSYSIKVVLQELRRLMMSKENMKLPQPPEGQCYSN
Sequence of GST-UbcH5a, P51668 (P51668 whole entry): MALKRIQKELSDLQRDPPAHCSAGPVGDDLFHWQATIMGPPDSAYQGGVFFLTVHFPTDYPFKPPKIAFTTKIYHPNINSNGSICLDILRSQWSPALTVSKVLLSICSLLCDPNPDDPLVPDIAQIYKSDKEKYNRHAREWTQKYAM
Sequence of GST-UbcH5c, P61077 (P61077 whole entry): as the sequence (P61077 whole entry) above
Sequence of His-UbcH6, P51965 (P51965 whole entry): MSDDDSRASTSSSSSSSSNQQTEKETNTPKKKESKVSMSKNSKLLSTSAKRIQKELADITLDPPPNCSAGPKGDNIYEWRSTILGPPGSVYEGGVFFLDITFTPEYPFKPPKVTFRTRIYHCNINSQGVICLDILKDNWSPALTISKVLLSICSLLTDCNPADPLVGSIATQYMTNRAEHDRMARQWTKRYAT

B1: GST-hPOSH1-139 (protein)
chain: MDESALLDLLECPVCLERLDASAKVLPCQHTFCKRCLLGIVGSRNELRCPECRTLVGSGVEELPSNILLVRLLDGIKQRPWKPGPGGGSGTNCTNALRSQSSTVANCSSKDLQSSQGGQQPRVQSWSPPVRGIPQLPCA
Take B1: the “self-ubiquitination of hPOSH (high molecular weight ubiquitin-biotin conjugates, streptavidin blot)” value with GST-UbcH5a, P51668 is “conjugation of ubiquitin to hPOSH was supported by four E2s, UbCH13/Uevla, UBCH5a, UBCH5c and UBCH6”; with GST-UbcH5c, P61077 it was “conjugation of ubiquitin to hPOSH was supported by four E2s, UbCH13/Uevla, UBCH5a, UBCH5c and UBCH6”; with His-UbcH6, P51965, “conjugation of ubiquitin to hPOSH was supported by four E2s, UbCH13/Uevla, UBCH5a, UBCH5c and UBCH6”; in data set [1] it was “conjugation of ubiquitin to hPOSH was supported by four E2s, UbCH13/Uevla, UBCH5a, UBCH5c and UBCH6”.

B2: POSH # 176 (1-269) gst fusion (protein)
chain: MDESALLDLLECPVCLERLDASAKVLPCQHTFCKRCLLGIVGSRNELRCPECRTLVGSGVEELPSNILLVRLLDGIKQRPWKPGPGGGSGTNCTNALRSQSSTVANCSSKDLQSSQGGQQPRVQSWSPPVRGIPQLPCAKALYNYEGKEPGDLKFSKGDIIILRRQVDENWYHGEVNGIHGFFPTNFVQIIKPLPQPPPQCKALYDFEVKDKEADKDCLPFAKDDVLTVIRRVDENWAEGMLADKIGIFPISYVEFNSAAKQLIEWDKP
As to B2, the “in-vitro self-ubiquitination of hPOSH (anti-ubiquitin immunoblot)” value in data set [2] is “Ub-hPOSHconjugates, detected as high molecular weight adducts only in reactions containing E1, E2 and ubiquitin”.

B3: POSH #178 (1-361) gst fusion (protein)
chain: MDESALLDLLECPVCLERLDASAKVLPCQHTFCKRCLLGIVGSRNELRCPECRTLVGSGVEELPSNILLVRLLDGIKQRPWKPGPGGGSGTNCTNALRSQSSTVANCSSKDLQSSQGGQQPRVQSWSPPVRGIPQLPCAKALYNYEGKEPGDLKFSKGDIIILRRQVDENWYHGEVNGIHGFFPTNFVQIIKPLPQPPPQCKALYDFEVKDKEADKDCLPFAKDDVLTVIRRVDENWAEGMLADKIGIFPISYVEFNSAAKQLIEWDKPPVPGVDAGECSSAAAQSSTAPKHSDTKKNTKKRHSFTSLTMANKSSQASQNRHSMEISPPVLISSSNPTAAARISELSGLSCSAPSQVHIST
Consider B3, for which the “in-vitro self-ubiquitination of hPOSH (anti-ubiquitin immunoblot)” value in data set [2] is “Ub-hPOSHconjugates, detected as high molecular weight adducts only in reactions containing E1, E2 and ubiquitin”.
